Experimental data reported in paper PMC4131897 (Biochemistry, 2014).

T1: BjPutA (proline utilization A) (Bradyrhizobium diazoefficiens, UniProt Q89E26)
T1 sequence (Q89E26 1-999): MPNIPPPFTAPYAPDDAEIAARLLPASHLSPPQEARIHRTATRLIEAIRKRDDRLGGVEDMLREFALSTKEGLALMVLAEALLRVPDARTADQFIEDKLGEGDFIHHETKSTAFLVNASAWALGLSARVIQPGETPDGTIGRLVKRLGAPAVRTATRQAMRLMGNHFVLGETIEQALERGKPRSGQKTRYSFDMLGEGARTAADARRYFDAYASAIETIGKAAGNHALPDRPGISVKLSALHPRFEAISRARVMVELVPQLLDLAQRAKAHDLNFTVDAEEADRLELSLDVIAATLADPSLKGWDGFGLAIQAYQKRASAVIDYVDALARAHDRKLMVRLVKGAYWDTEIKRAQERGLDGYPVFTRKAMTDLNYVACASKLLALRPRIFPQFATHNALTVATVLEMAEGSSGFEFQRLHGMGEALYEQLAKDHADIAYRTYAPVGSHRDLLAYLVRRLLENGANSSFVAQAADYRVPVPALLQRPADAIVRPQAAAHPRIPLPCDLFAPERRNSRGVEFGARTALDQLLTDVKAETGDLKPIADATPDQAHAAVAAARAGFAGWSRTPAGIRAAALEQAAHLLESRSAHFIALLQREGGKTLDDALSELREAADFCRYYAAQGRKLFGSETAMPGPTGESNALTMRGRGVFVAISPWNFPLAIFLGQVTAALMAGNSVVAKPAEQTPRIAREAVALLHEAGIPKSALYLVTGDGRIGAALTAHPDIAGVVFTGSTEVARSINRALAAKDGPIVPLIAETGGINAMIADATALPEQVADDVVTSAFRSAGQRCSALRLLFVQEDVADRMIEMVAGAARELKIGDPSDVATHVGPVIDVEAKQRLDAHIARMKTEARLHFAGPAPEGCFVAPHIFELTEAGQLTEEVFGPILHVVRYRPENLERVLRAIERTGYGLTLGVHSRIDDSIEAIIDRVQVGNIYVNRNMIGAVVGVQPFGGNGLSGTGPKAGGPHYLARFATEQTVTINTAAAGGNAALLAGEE

B1: BjPutA (proline utilization A) (Bradyrhizobium diazoefficiens USDA 110) (protein)
chain: T1 sequence (Q89E26 1-999)

Experiments:
[1] = biological target: T1, BjPutA (proline utilization A); assay: coupled PRODH-P5CDH assay, NADH formation at […] nm, substrate inhibition fit; assay type: biochemical; conditions: 0.1 mM CoQ1, 0.2 mM NAD+, 50 mM potassium phosphate pH 7.5, 25 mM NaCl
purified protein [2] = substrate: COC1=C(OC)C(=O)C(CC=C(C)C)=C(C)C1=O; assay: purified protein; conditions: 150 mM proline, 50 mM potassium phosphate pH 7.5, 23 °C
purified protein [3] = substrate: O=C(O)[C@@H]1CCCN1; assay: purified protein; conditions: 250 μM CoQ1, 50 mM potassium phosphate pH 7.5, 23 °C

Row | Molecule | Ki [1] [mM] | Km (purified protein [2]) [mM] | kcat (purified protein [2]) [s⁻¹] | kcat/Km (purified protein [2]) [M⁻¹ s⁻¹] | Km (purified protein [3]) [mM] | kcat (purified protein [3]) [s⁻¹] | kcat/Km (purified protein [3]) [M⁻¹ s⁻¹]
1 | O=C(O)[C@@H]1CCCN1 [proline] | 24 ± 12 |  |  |  |  |  | 
2 | B1 |  | 0.105 ± 0.006 | 2.9 ± 0.1 | 27600 ± 1710 | 43 ± 5 | 3.1 ± 0.1 | 72 ± 8.6
